B1: Solute carrier family 35 member A5 (SLC35A5), eGFP fusion (natural protein, human, UniProt Q9BS91 1-424, looked up)
chain: MEKQCCSHPVICSLSTMYTFLLGAIFIALSSSRILLVKYSANEENKYDYLPTTVNVCSELVKLVFCVLVSFCVIKKDHQSRNLKYASWKEFSDFMKWSIPAFLYFLDNLIVFYVLSYLQPAMAVIFSNFSIITTALLFRIVLKRRLNWIQWASLLTLFLSIVALTAGTKTLQHNLAGRGFHHDAFFSPSNSCLLFRSECPRKDNCTAKEWTFPEAKWNTTARVFSHIRLGMGHVLIIVQCFISSMANIYNEKILKEGNQLTESIFIQNSKLYFFGILFNGLTLGLQRSNRDQIKNCGFFYGHSAFSVALIFVTAFQGLSVAFILKFLDNMFHVLMAQVTTVIITTVSVLVFDFRPSLEFFLEAPSVLLSIFIYNASKPQVPEYAPRQERIRDLSGNLWERSSGDGEELERLTKPKSDESDEDTF
notes: SLC35A5, putative nucleotide sugar transporter; expressed from the plasmid pTag-GFP2-C-A5; FRET donor in every pair; In the pair A5 + A5 the second copy carried mRFP (pTag-RFP-C-SLC35A construct) in place of eGFP; also called pTag-GFP2-C-A5; source: HEK293T, transiently transfected, in living cells
B2: UDP-galactose transporter (SLC35A2), Golgi splice variant, mRFP fusion (natural protein, UniProt P78381-2 1-393, looked up)
chain: MAAVGAGGSTAAPGPGAVSAGALEPGTASAAHRRLKYISLAVLVVQNASLILSIRYARTLPGDRFFATTAVVMAEVLKGLTCLLLLFAQKRGNVKHLVLFLHEAVLVQYVDTLKLAVPSLIYTLQNNLQYVAISNLPAATFQVTYQLKILTTALFSVLMLNRSLSRLQWASLLLLFTGVAIVQAQQAGGGGPRPLDQNPGAGLAAVVASCLSSGFAGVYFEKILKGSSGSVWLRNLQLGLFGTALGLVGLWWAEGTAVATRGFFFGYTPAVWGVVLNQAFGGLLVAVVVKYADNILKGFATSLSIVLSTVASIRLFGFHVDPLFALGAGLVIGAVYLYSLPRGAAKAIASASASASGPCVHQQPPGQPPPPQLSSHRGDLITEPFLPKSVLVK
notes: expressed from a pTag-RFP-C-SLC35A construct; FRET acceptor; also called first splice variant of SLC35A2; source: HEK293T, transiently transfected, in living cells
B3: CMP-sialic acid transporter (SLC35A1), mRFP fusion (natural protein, UniProt P78382 1-337, looked up)
chain: MAAPRDNVTLLFKLYCLAVMTLMAAVYTIALRYTRTSDKELYFSTTAVCITEVIKLLLSVGILAKETGSLGRFKASLRENVLGSPKELLKLSVPSLVYAVQNNMAFLALSNLDAAVYQVTYQLKIPCTALCTVLMLNRTLSKLQWVSVFMLCAGVTLVQWKPAQATKVVVEQNPLLGFGAIAIAVLCSGFAGVYFEKVLKSSDTSLWVRNIQMYLSGIIVTLAGVYLSDGAEIKEKGFFYGYTYYVWFVIFLASVGGLYTSVVVKYTDNIMKGFSAAAAIVLSTIASVMLFGLQITLTFALGTLLVCVSIYLYGLPRQDTTSIQQGETASKERVIGV
notes: SLC35A1, CMP-sialic acid transporter; expressed from a pTag-RFP-C-SLC35A construct; FRET acceptor; The legend writes 'mRFP/SLC35A proteins'; also called mRFP/SLC35A1; source: HEK293T, transiently transfected, in living cells
B4: UDP-galactose transporter (SLC35A2), ER splice variant, mRFP fusion (natural protein, UniProt P78381-1 1-396, looked up)
chain: MAAVGAGGSTAAPGPGAVSAGALEPGTASAAHRRLKYISLAVLVVQNASLILSIRYARTLPGDRFFATTAVVMAEVLKGLTCLLLLFAQKRGNVKHLVLFLHEAVLVQYVDTLKLAVPSLIYTLQNNLQYVAISNLPAATFQVTYQLKILTTALFSVLMLNRSLSRLQWASLLLLFTGVAIVQAQQAGGGGPRPLDQNPGAGLAAVVASCLSSGFAGVYFEKILKGSSGSVWLRNLQLGLFGTALGLVGLWWAEGTAVATRGFFFGYTPAVWGVVLNQAFGGLLVAVVVKYADNILKGFATSLSIVLSTVASIRLFGFHVDPLFALGAGLVIGAVYLYSLPRGAAKAIASASASASGPCVHQQPPGQPPPPQLSSHRGDLITEPFLPKLLTKVKGS
notes: SLC35A2, UDP-galactose transporter, the second splice variant, localised mainly to the ER (A2-ER); expressed from a pTag-RFP-C-SLC35A construct; FRET acceptor; also called second splice variant of SLC35A2; source: HEK293T, transiently transfected, in living cells
B5: SLC35A4, mRFP fusion (natural protein, UniProt Q96G79 1-324, looked up)
chain: MSVEDGGMPGLGRPRQARWTLMLLLSTAMYGAHAPLLALCHVDGRVPFRPSSAVLLTELTKLLLCAFSLLVGWQAWPQGPPPWRQAAPFALSALLYGANNNLVIYLQRYMDPSTYQVLSNLKIGSTAVLYCLCLRHRLSVRQGLALLLLMAAGACYAAGGLQVPGNTLPSPPPAAAASPMPLHITPLGLLLLILYCLISGLSSVYTELLMKRQRLPLALQNLFLYTFGVLLNLGLHAGGGSGPGLLEGFSGWAALVVLSQALNGLLMSAVMKHGSSITRLFVVSCSLVVNAVLSAVLLRLQLTAAFFLATLLIGLAMRLYYGSR
notes: SLC35A4, member of the SLC35A subfamily; expressed from a pTag-RFP-C-SLC35A construct; FRET acceptor; source: HEK293T, transiently transfected, in living cells
B6: UDP-N-acetylglucosamine transporter (SLC35A3), mRFP fusion (natural protein, UniProt Q9Y2D2 1-325, looked up)
chain: MFANLKYVSLGILVFQTTSLVLTMRYSRTLKEEGPRYLSSTAVVVAELLKIMACILLVYKDSKCSLRALNRVLHDEILNKPMETLKLAIPSGIYTLQNNLLYVALSNLDAATYQVTYQLKILTTALFSVSMLSKKLGVYQWLSLVILMTGVAFVQWPSDSQLDSKELSAGSQFVGLMAVLTACFSSGFAGVYFEKILKETKQSVWIRNIQLGFFGSIFGLMGVYIYDGELVSKNGFFQGYNRLTWIVVVLQALGGLVIAAVIKYADNILKGFATSLSIILSTLISYFWLQDFVPTSVFFLGAILVITATFLYGYDPKPAGNPTKA
notes: SLC35A3, UDP-N-acetylglucosamine transporter; expressed from a pTag-RFP-C-SLC35A construct; FRET acceptor; source: HEK293T, transiently transfected, in living cells

The first series concerns the molecule itself. The series is described as follows: FRET or BRET; FLIM/FRET in living HEK293T cells transiently co-transfected, analysed 48 h after transfection in FluoroBrite DMEM; SLC35A5-eGFP as donor, mRFP-tagged SLC35A proteins as acceptors; eGFP lifetime of the donor alone 2.70 ns.
Details: not given
(In BRET a luciferase serves as donor, and the signal depends on an acceptor being close.)
Regarding B1, the “eGFP fluorescence lifetime of the donor with the acceptor (donor alone 2.70 ns)” value (“eGFP fluorescence lifetime of the donor” below) turned out to be 2.51 ns.

Another series deals with B1. Described as above. The following applies: partners not purified.
Regarding B2, the “eGFP fluorescence lifetime of the donor” value was found to be 2.24 ns.
Take B3: the “eGFP fluorescence lifetime of the donor” value worked out at 2.29 ns.
For B4, the “eGFP fluorescence lifetime of the donor” value came out at 2.31 ns.
Take B5: the “eGFP fluorescence lifetime of the donor” value came to 2.39 ns.
On the same count and under the same terms, with B6 the figure was 2.35 ns.

For the origin of these results see PMC6359379, “SLC35A5 Protein—A Golgi Complex Member with Putative Nucleotide Sugar Transport Activity” (International Journal of Molecular Sciences, 2019).
